The values below come from patent US20240417476A1 (ATYR PHARMA, published 2024).

Like-named read-outs stand apart in the source and are kept apart here. Ends that are not written are not given here.

Assay [1] has as its target T1, CCR7, full coding sequence, in pBiT1.1-C with C-terminal split NanoLuc tag, expressed in Expi293F cells (human, UniProt P32248 25-378).
T1 construct: cDNA Genscript OHu24012; not shown: vector-encoded spacer and large split NanoLuc fragment (pBiT1.1-C)
T1 sequence: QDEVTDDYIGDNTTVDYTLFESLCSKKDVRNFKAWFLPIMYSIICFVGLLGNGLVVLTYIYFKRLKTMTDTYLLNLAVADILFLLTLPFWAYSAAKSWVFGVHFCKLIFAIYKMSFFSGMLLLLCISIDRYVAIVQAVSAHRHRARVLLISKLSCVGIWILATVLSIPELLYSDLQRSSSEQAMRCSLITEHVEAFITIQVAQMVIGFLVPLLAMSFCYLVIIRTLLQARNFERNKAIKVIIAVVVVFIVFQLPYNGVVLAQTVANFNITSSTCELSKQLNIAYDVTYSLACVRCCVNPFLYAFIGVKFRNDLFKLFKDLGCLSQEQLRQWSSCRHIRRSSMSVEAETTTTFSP
In words: NanoBiT split-luciferase complementation of tagged NRP2 and CCR7 in Expi293F cells; normalized to wells without ligand.

Assay [2] deals with T1, CCR7, full coding sequence, in …. The description is as above. The source holds these as a separate data set.
Method: The vectors were then transfected into Expi293F cells by Expifectamine transfection reagent (Fisher Scientific) at 1 ug per mL at a density of 1 million cells per mL. Approximately 16-20 hours post transfection, cells were washed, plated at 100,000 cells/well in luminometer plates, and then cell permeable luciferase substrate was added and luminescence was monitored on a GloMax96 (Promega) until stabilization of luminescent signal was achieved.
For assay [3], the target named is T2, Human NRP2a v2 (926aa) in pBiT2.1-C with C-terminal split NanoLuc tag, expressed in Expi293 cells (human, UniProt O60462 23-931).
T2 construct: cDNA Origene RCC220706, isoform 2; also called pBiT2.1-C-NRP2v2 (isoform 2); NRP2 v2; not shown: vector-encoded spacer and small split NanoLuc fragment (pBiT2.1-C)
The experiment in a line: CCL21-induced NRP2a/CCR7 receptor dimerization (NanoBiT, Example 7); mark beside the epitope box.

For assay [4], the target named is T3, NRP2A peptide (biotinylated) (human, biotin-conjugated, site not stated).
T3 construct: also called NPR2A; NRP2a specific peptide
In words: BLI, isoform peptide on sensor, 50 nM antibody.

In another assay the target is T4, NRP2v3.
T4 construct: not the NanoLuc-tagged construct m33; also called human NRP2 v3 expressed on Expi293F cells; NRP2a v3
T4 chain: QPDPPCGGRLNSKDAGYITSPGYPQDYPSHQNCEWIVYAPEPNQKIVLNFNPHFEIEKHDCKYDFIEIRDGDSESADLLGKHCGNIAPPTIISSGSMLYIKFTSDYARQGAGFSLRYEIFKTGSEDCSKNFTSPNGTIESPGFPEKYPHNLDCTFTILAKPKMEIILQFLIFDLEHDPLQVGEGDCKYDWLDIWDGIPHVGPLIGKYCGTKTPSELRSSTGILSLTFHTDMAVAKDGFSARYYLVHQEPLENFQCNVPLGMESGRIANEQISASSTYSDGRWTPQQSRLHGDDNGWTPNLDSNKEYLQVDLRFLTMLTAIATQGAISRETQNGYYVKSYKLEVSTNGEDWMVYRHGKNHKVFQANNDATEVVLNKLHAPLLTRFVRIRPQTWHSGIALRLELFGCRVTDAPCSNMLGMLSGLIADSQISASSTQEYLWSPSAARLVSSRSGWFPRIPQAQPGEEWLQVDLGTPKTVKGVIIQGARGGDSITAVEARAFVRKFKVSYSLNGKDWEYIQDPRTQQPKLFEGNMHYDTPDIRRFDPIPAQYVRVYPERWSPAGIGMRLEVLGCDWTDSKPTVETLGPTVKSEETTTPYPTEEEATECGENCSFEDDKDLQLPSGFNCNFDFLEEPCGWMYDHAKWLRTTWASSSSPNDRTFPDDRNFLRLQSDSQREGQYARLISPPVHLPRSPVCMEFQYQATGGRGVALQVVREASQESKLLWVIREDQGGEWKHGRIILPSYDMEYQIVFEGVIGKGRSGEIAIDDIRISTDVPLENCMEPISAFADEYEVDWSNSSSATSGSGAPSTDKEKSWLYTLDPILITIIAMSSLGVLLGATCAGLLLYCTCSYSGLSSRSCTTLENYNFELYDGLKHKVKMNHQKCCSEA
The experiment in a line: flow cytometry, Expi293F cells transfected with the target, fluorescent anti-mouse secondary; MFI signal relative to mock-transfected cells.

The target of assay [5] is T5, NRP2b peptide (biotinylated) (human, biotin-conjugated, site not stated).
T5 construct: also called NRP2b isoform specific peptide
T5 peptide: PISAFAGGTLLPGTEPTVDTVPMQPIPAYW
The experiment in a line: peptide ELISA.

Assay [6] addresses T6, human NRP2b expressed on Expi293F cells (human).
T6 construct: also called full length NRP2b
T6 chain: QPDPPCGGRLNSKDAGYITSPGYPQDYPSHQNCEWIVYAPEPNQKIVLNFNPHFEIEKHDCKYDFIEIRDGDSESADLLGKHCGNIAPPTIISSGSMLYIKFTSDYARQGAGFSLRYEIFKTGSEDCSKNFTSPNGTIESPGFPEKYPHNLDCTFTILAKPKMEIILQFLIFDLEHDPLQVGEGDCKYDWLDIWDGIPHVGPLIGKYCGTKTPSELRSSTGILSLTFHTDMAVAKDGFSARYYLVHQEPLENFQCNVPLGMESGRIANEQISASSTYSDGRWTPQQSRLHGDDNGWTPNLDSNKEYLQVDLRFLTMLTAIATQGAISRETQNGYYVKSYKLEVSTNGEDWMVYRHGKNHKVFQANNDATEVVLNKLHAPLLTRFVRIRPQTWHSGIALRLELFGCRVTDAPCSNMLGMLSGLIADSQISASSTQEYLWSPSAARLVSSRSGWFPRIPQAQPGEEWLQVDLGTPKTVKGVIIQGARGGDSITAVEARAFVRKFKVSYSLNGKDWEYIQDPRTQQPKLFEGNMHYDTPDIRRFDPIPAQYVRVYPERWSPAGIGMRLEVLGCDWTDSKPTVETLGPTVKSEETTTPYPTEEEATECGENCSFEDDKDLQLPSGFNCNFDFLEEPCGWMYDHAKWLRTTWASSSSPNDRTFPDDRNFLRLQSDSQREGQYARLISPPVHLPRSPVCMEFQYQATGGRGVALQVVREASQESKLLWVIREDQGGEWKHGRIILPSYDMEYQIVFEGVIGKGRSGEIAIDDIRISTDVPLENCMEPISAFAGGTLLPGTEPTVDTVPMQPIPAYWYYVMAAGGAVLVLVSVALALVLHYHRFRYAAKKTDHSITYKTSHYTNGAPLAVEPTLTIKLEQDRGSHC
The experiment in a line: flow cytometry, Expi293F cells transfected with the target, fluorescent anti-mouse secondary; MFI signal relative to mock-transfected cells.
Method: (§1) Signal to noise was calculated as the staining intensity of transfected cells compared to an un-transfected ‘mock’ population.

The target of assay [7] is T7, NRP2a_scan 7 peptide (biotinylated) (human, also: biotin-conjugated, site not given here).
T7 peptide: EYEVDWSNSSSA
The experiment in a line: BLI, peptide on sensor.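 Further: octet RED96e biolayer interferometry with biotin-conjugated NRP2 peptides spanning isoform-specific regions (human and mouse) loaded on biosensors, antibodies applied at 50 nM, association read over 300 s.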

For assay [8], the target named is T8, NRP2a_scan 3 peptide (biotinylated) (human, also: biotin-conjugated, site not given here).
T8 peptide: HEREGYEDEIDD
In words: BLI, peptide on sensor.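 Further: octet RED96e biolayer interferometry with biotin-conjugated NRP2 peptides spanning isoform-specific regions (human and mouse) loaded on biosensors, antibodies applied at 50 nM, association read over 300 s.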

The target of assay [9] is mNRP2b peptide (biotinylated) (mouse, biotin-conjugated, site not stated). In words: BLI, peptide on sensor.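 Further: octet RED96e biolayer interferometry with biotin-conjugated NRP2 peptides spanning isoform-specific regions (human and mouse) loaded on biosensors, antibodies applied at 50 nM, association read over 300 s.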
Assay [10] addresses T9, Mid-NRP2A peptide (biotinylated) (human, biotin-conjugated, site not stated).
T9 peptide: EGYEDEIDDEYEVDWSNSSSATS
In words: BLI, peptide on sensor.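 Further: octet RED96e biolayer interferometry with biotin-conjugated NRP2 peptides spanning isoform-specific regions (human and mouse) loaded on biosensors, antibodies applied at 50 nM, association read over 300 s.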

The target in assay [11] is T10, NRP2a_scan 4 peptide (biotinylated) (human, also: biotin-conjugated, site not given here).
T10 peptide: EGYEDEIDDEYE
The experiment in a line: BLI, peptide on sensor.

Assay [12] has as its target T11, NRP2a_scan 6 peptide (biotinylated) (human, also: biotin-conjugated, site not given here).
T11 peptide: IDDEYEVDWSNS
In words: BLI, peptide on sensor.

Assay [13] has as its target T12, NRP2a_scan 5 peptide (biotinylated) (human, also: biotin-conjugated, site not given here).
T12 peptide: EDEIDDEYEVDW
The experiment in a line: BLI, peptide on sensor.

For assay [14], the target named is T13, NRP2a_scan 2 peptide (biotinylated) (human, also: biotin-conjugated, site not given here).
T13 peptide: PEIHEREGYEDE
In words: BLI, peptide on sensor, 50 nM antibody.

The target of assay [15] is Short NRP2A peptide (biotinylated) (human, biotin-conjugated, site not stated). The experiment in a line: BLI, peptide on sensor, 50 nM antibody.
Assay [16] concerns the target T14, NRP2a_scan 1 peptide (biotinylated) (human, also: biotin-conjugated, site not given here).
T14 peptide: VDIPEIHEREGY
The experiment in a line: BLI, peptide on sensor, 50 nM antibody.

Chain of mNRP2b peptide (biotinylated) (mouse, biotin-conjugated, site not stated) (peptide, as listed by the source): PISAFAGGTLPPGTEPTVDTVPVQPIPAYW
Method for NRP2v3: as §1

B1: Human NRP2b v4 (906aa) with C-terminal split NanoLuc tag, expressed in Expi293F cells (receptor)
chain: QPDPPCGGRLNSKDAGYITSPGYPQDYPSHQNCEWIVYAPEPNQKIVLNFNPHFEIEKHDCKYDFIEIRDGDSESADLLGKHCGNIAPPTIISSGSMLYIKFTSDYARQGAGFSLRYEIFKTGSEDCSKNFTSPNGTIESPGFPEKYPHNLDCTFTILAKPKMEIILQFLIFDLEHDPLQVGEGDCKYDWLDIWDGIPHVGPLIGKYCGTKTPSELRSSTGILSLTFHTDMAVAKDGFSARYYLVHQEPLENFQCNVPLGMESGRIANEQISASSTYSDGRWTPQQSRLHGDDNGWTPNLDSNKEYLQVDLRFLTMLTAIATQGAISRETQNGYYVKSYKLEVSTNGEDWMVYRHGKNHKVFQANNDATEVVLNKLHAPLLTRFVRIRPQTWHSGIALRLELFGCRVTDAPCSNMLGMLSGLIADSQISASSTQEYLWSPSAARLVSSRSGWFPRIPQAQPGEEWLQVDLGTPKTVKGVIIQGARGGDSITAVEARAFVRKFKVSYSLNGKDWEYIQDPRTQQPKLFEGNMHYDTPDIRRFDPIPAQYVRVYPERWSPAGIGMRLEVLGCDWTDSKPTVETLGPTVKSEETTTPYPTEEEATECGENCSFEDDKDLQLPSGFNCNFDFLEEPCGWMYDHAKWLRTTWASSSSPNDRTFPDDRNFLRLQSDSQREGQYARLISPPVHLPRSPVCMEFQYQATGGRGVALQVVREASQESKLLWVIREDQGGEWKHGRIILPSYDMEYQIVFEGVIGKGRSGEIAIDDIRISTDVPLENCMEPISAFAGENFKGGTLLPGTEPTVDTVPMQPIPAYWYYVMAAGGAVLVLVSVALALVLHYHRFRYAAKKTDHSITYKTSHYTNGAPLAVEPTLTIKLEQDRGSHC
notes: not shown: vector-encoded spacer and split NanoLuc fragment
With B1, in assay [1], the binding result is “no binding (tested: 100 nM CCL21 or CCL19 (from the text))”.

B2: Human NRP2b v5 with C-terminal split NanoLuc tag, expressed in Expi293F cells (receptor)
chain: T6 chain
notes: cDNA Origene RC210928, isoform 5; not shown: vector-encoded spacer and split NanoLuc fragment
In the case of B2, in assay [2], the binding result was “no binding (tested: 100 nM CCL21 or CCL19 (from the text))”.

B3: aNRP2-404v2 (antibody, V domains shown)
VH: EVQLQQSGPELVKPGASVKISCKASGYTFTDYNMHWVKQSHGKSLEWIGYIYPYNGDSGYNQRFKSEATLTVDISSSTAYMELRSLTSDDSAVYYCARLGRGYWGQGTTLTVSS
VL: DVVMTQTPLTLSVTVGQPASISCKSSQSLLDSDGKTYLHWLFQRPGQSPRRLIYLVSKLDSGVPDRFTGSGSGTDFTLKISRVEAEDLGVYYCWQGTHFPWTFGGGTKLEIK
notes: Mouse monoclonal
On to B3, for which the blocks receptor dimerization in [3] is less than 50%. Moreover, the binding result in assay [4] is recorded as “binds”; with NRP2v3 it was “no binding”; in assay [5], “no binding (tested: <3x blank)”; in assay [6] it was “no binding”; in assay [7], “no binding (tested: 50 nM)”; in [8] it was “no binding (tested: 50 nM)”. For the same molecule, the binding result in [9] is “no binding (tested: 50 nM)”; in assay [10] it was “no binding (tested: 50 nM)”; in assay [11] it was “no binding (tested: 50 nM)”; in [12] it was “no binding (tested: 50 nM)”; in assay [13], “no binding (tested: 50 nM)”; in assay [14] it was “binds”. The binding result in assay [15] and in assay [16] was “binds” each time.
